The values below come from doi:10.1101/2022.09.05.506423 (bioRxiv, 2022).

Usually stoichiometry N stands for a count of units in the complex or per binding partner.

The target in assay [1] is AαBβγ half-molecule of human fibrinogen (human) (UniProt P02671). Kind of assay: SEC.
Assay [2] deals with T1, fibrinogen Bβ chain (human) (human, UniProt P02675 31-491, N-linked glycan at N364).
T1 sequence (looked up): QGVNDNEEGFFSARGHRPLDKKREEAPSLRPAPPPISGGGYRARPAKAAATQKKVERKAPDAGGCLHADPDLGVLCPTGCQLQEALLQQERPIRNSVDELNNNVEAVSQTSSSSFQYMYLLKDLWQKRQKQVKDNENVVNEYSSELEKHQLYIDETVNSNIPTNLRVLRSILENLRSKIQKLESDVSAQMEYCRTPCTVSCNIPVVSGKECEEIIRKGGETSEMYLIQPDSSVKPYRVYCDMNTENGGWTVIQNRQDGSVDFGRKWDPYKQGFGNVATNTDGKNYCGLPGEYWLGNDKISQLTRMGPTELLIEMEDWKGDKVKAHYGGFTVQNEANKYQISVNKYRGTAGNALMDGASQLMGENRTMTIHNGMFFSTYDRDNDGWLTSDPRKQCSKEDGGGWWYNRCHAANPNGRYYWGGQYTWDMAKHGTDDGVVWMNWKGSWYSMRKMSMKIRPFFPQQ
The experiment in a line: SEC. Background: SEC sorts molecules by how far they enter the pores of the column.

In the case of “AαBβγ half-molecule of human fibrinogen (from UniProt P02671-2 20-644; P02675 31-491; P02679-2 27-437) (complex)”, the stoichiometry N in assay [1] was found to be 2.

B1: fibrinogen γ chain, γ-A isoform (human) (natural protein, UniProt P02679-2 27-437, looked up)
chain: YVATRDNCCILDERFGSYCPTTCGIADFLSTYQTKVDKDLQSLEDILHQVENKTSEVKQLIKAIQLTYNPDESSKPNMIDAATLKSRKMLEEIMKYEASILTHDSSIRYLQEIYNSNNQKIVNLKEKVAQLEAQCQEPCKDTVQIHDITGKDCQDIANKGAKQSGLYFIKPLKANQQFLVYCEIDGSGNGWTVFQKRLDGSVDFKKNWIQYKEGFGHLSPTGTTEFWLGNEKIHLISTQSAIPYALRVELEDWNGRTSTADYAMFKVGPEADKYRLTYAYFAGGDAGDAFDGFDFGDDPSDKFFTSHNGMQFSTWDNDNDKFEGNCAEQDGSGWWMNKCHAGHLNGVYYQGGTYSKASTPNGYDNGIIWATWKTRWYSMKKTTMKIIPFNRLTIGEGQQHHLGGAKQAGDV
modifications: N-linked glycan at N52
As for B1, in assay [2], the binding result is on record as “binds”.
